Measurements published in patent US20110002929A1 (Ablynx, published 2011).
Positions count from the first letter of the chain named. Where two headings read alike, the source gives them in different places. Each block holds one binder with its values, some of them ahead of it.

Key:
[1] = target: T1, human RANK-L (human, UniProt O14788 140-317, limits assumed); assay: AlphaScreen, biotin-hRANK-L / RANK-huFc beads
T1 construct: Soluble protein, used coated, biotinylated or labelled in ELISA, AlphaScreen, FMAT and Biacore; also called hRANK-L; soluble human RANK-L
T1 sequence (looked up): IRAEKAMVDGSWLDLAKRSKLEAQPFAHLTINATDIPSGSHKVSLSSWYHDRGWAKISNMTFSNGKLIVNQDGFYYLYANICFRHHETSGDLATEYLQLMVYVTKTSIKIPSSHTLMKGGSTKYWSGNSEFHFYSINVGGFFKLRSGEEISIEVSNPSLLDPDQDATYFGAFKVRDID

[2] = target: T1, human RANK-L; assay: AlphaScreen, biotin-hRANK-L / RANK-huFc beads; remark: listed apart in the source
Description: To this mixture, the RANK acceptor beads and the streptavidin donor beads were added and further incubated for 1 hour at room temperature. Fluorescence was measured by reading plates on the EnVision Multilabel Plate Reader (Perkin Elmer) using an excitation wavelength of 680 nm and an emission wavelength of 520 nm.

[3] = target: T1, human RANK-L; assay: ELISA (ED50), biotin-hRANK-L on neutravidin
Description: (§1) Therefore 2 μg/ml neutravidin was coated overnight at 4° C. The plates were washed 5 times with 300 μl PBS and then blocked with […] 1% casein/PBS for 2 hours at room temperature. […] After extensive washing with PBS, varying concentrations of Nanobodies starting from 500 nM to 160 pM diluted in 1% casein/PBS were added to the wells and the plates were incubated for 1 hour at room temperature. Bound Nanobodies were detected by subsequent incubations of a primary mouse anti-myc antibody and a secondary anti mouse-HRP conjugate (DAKO, Glostrup, Denmark) and using TMB-H2O2 (Pierce, Rockford, Ill., USA) substrate cocktail. The reaction was stopped with H₂SO₄ and the OD was read at 450 nm.

[4] = target: T2, mouse RANK-L (mouse, UniProt O35235 158-316, limits assumed); assay: ELISA, set-up as for human RANK-L
T2 construct: also called murine RANK-L
T2 sequence (looked up): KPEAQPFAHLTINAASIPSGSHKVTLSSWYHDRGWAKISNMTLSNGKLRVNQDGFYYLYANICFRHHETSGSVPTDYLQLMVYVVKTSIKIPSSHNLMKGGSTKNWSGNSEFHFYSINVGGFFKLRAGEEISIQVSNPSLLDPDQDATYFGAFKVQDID
Description: as §1

[5] = target: T1, human RANK-L; assay: AlphaScreen, biotin-hRANK-L / RANK-huFc beads; remark: listed apart in the source
[6] = target: T1, human RANK-L; assay: SPR Biacore 3000, hRANK-L on CM5, 100 nM Nanobody; only indicative (one concentration)
Description: (§2) Binding kinetics of the humanized versions of Nanobodu RANL13 were also analysed by Surface Plasmon Resonance (Biacore 3000). […] Nanobody binding was assessed at one concentration (100 nM). Each Nanobody was injected for 4 minutes at a flow rate of 45 μl/min to allow binding to chip-bound antigen. Next, binding buffer without Nanobody was sent over the chip at the same flow rate to allow spontaneous dissociation of bound Nanobody.

[7] = target: T1, human RANK-L; assay: SPR Biacore 3000, hRANK-L on CM5, 100 nM Nanobody
Description: as §2

B3: RANKL14 (VHH)
VHH: EVQLVESGGGLVQAGGSLRLSCAASGRTSSYYTMSWFRQDPGKEREFVAAVPLSGNTYYADPVRGRFTISRDNAKNTADLQMNSLKPEDTAVYYCAARASGSIYNRGSYAYWGQGTQVTVSS
notes: not shown: c-myc and His6 tags
IC50 [2]: 1750 pM
EC50 [3]: 574 pM
binding result [4]: no binding (tested: 500 nM to 160 pM)

B4: RANKL1 (VHH)
VHH: EVQLVESGGGLVQAGGSLRLSCAVSGRTFSSSTMAWFRQPPGGERDFVASISTSGTRTLYADSVKGRFTISRDNAKSTGYLQMNSLKPEDTAVYFCAAVNRRGWEFWRLASGYDYWGLGAQVTVSS
notes: as for B3
IC50 [2]: 739 pM
EC50 [3]: 619 pM
binding result [4]: no binding (tested: 500 nM to 160 pM)

B5: RANKL13basic (VHH)
VHH: EVQLVESGGGLVQPGGSLRLSCAASGRTFRSYPMGWFRQAPGKGREFVASITGSGGSTYYADSVKGRFTISRDNAKNTLYLQMNSLRPEDTAVYSCAAYIRPDTYLSRDYRKYDYWGQGTLVTVSS
notes: Humanized variant of RANKL13; also called RANKL13humbasic
IC50 [5]: 159 pM
Kd [6]: 214 pM
kon [6]: 885000 M⁻¹ s⁻¹
koff [7]: 0.000189 s⁻¹

B8: RANKL13hum3 (VHH, name in Kabat numbering)
VHH: B5 VHH with A49S
notes: also called RANL13hum3
IC50 [5]: 196 pM
Kd [6]: 264 pM
kon [6]: 659000 M⁻¹ s⁻¹
koff [7]: 0.000174 s⁻¹

B10: RANKL16 (VHH)
VHH: EVQLVESGGGLVQAGGSLRLSCVASRRTFSSYAMGWFRQVPGKERDFVAAISTGSITIYGDSVKGRFTISRDNAKNTVYLQMNSLKPEDTAVYYCAAGKREPYLRQYTASNPYDYWGQGTQVTVSS
notes: as for B3
IC50 [2]: 2250 pM
EC50 [3]: 953 pM
binding result [4]: no binding (tested: 500 nM to 160 pM)

B12: RANKL19 (VHH)
VHH: EVQLVESGGGLVQAGDSLRLSCAASGRTVTMGWFRQAPGKEREFVASITGSGSVTNYADSVKGRFTISRDNAKNTVFLQMNSLKPEDTAVYYCAAYLPSPYYSSYYDSTKYEYWGQGTQVTVSS
notes: as for B3
IC50 [2]: 2240 pM
EC50 [3]: 506 pM
binding result [4]: no binding (tested: 500 nM to 160 pM)

B13: RANKL20 (VHH)
VHH: EVQLVESGGGLVQAGDSLRLSCAASGRTFTMGWFRQAPGTEREFVAAISGSGKITNYADSVKGRFTISRDHAKNTVFLQMDSLKPEDTAVYYCAGYLRSPYYSSFYDSAKYEYWGQGTQVTVSS
notes: as for B3
IC50 [2]: 1360 pM
EC50 [3]: 306 pM
binding result [4]: no binding (tested: 500 nM to 160 pM)

B15: RANKL18hum2 (VHH, name in Kabat numbering)
VHH: EVQLVESGGGLVQPGGSLRLSCAASGRTFSRSAMGWFRQAPGKGREFVSFITGSGGTTYYGESVKGRFTISRDNAQNPVYLQMNSLRPEDTAVYYCGVYRRTYISSTYSESSEYDYWGQGTLVTVSS
IC50 [5]: 3190 pM
Kd [6]: 2730 pM
kon [6]: 63400 M⁻¹ s⁻¹
koff [7]: 0.000173 s⁻¹

B18: RANKL23 (VHH)
VHH: EVQLVESGGGLVQAGGSLRLSCAASGLTTVYTMAWFRQAPGKEREFVAAITRSGKTTYYADSVKGRFTISRDNAKNTVNLQMNSLKPDDTAVYYCAAKALLGMTNPAGYEYWGQETQVTVSS
notes: also called 9H5; not shown: c-myc and His6 tags
IC50 [2]: 3530 pM
EC50 [3]: 679 pM
binding result [4]: no binding (tested: 500 nM to 160 pM)

B20: RANKL17 (VHH)
VHH: EVQLVESGGGLVQVGDSLRLSCEASGRSRFSTYVMGWFRQAPGKEREFVAAVSWSSGNAYYIDSAKGRFATSRDTAKNIMYLQMNSLKPEDTAVYTCAAGRGYGLLSEYTQAPRYDYWGQGTQVTVSS
notes: as for B3
IC50 [2]: 737 pM
EC50 [3]: 453 pM
binding result [4]: no binding (tested: 500 nM to 160 pM)

B21: RANKL11 (VHH)
VHH: EVQLVESGGGLVQAGGSLRLSCAASGRTFSSKTMGWFRQPPGNEREFVAAITPTSRTTYYADSVKGRFTISRDNAKNTVSLQMNSLKFEDTAAYYCVAVRRYGSPPHDGSSYEYWGQGTQVTVSS
notes: as for B3
IC50 [2]: 1170 pM
EC50 [3]: 517 pM
binding result [4]: no binding (tested: 500 nM to 160 pM)

B22: RANKL4 (VHH)
VHH: KVQLVESGGGLVQTGDSLRLSCAASGRAIGSYAMGWFRQAPGKEREFVAVINYRGSSLKYADRVKGRFTISRDNAKNMVYLQMNSLKPDDTAVYYCAAQTSGADFGTTPQRYTYWGQGTQVTVSS
notes: as for B3
IC50 [2]: 582 pM
EC50 [3]: 380 pM
binding result [4]: no binding (tested: 500 nM to 160 pM)

The next lines start with the values.

IC50 [1]: 26 pM
B1: RANKL133 (VHH)
chain: EVQLVESGGGLVQAGGSLRLSCAASGRTFRSYPMGWFRQAPGKEREFVASITGSGGSTYYADSVKGRFTISRDNAKNTVYLQMNSLRPEDTAVYSCAAYIRPDTYLSRDYRKYDYWGQGTQVTVSSGGGGSGGGGSGGGGSGGGGSGGGGSGGGGSEVQLVESGGGLVQAGGSLRLSCAASGRTFRSYPMGWFRQAPGKEREFVASITGSGGSTYYADSVKGRFTISRDNAKNTVYLQMNSLRPEDTAVYSCAAYIRPDTYLSRDYRKYDYWGQGTQVTVS
notes: Bivalent Nanobody; also called RANKL13-30GS-RANKL13

IC50 [2]: 3020 pM
EC50 [3]: 379 pM
binding result [4]: no binding (tested: 500 nM to 160 pM)
B2: RANKL22 (VHH)
VHH: EVQLVESGGGLMQTGGSLRLSCAASERTSRNYGMGWFRQAPGKEREFVAAITSAGGTTYYGDFVKGRFTISRDSAKYTVYLQMNSLKPEDTAVYWCAAKLQIGGRWHNLNDYGYRGQGTQVTVSS
notes: also called 7D12; not shown: c-myc and His6 tags

IC50 [5]: 223 pM
Kd [6]: 538 pM
kon [6]: 379000 M⁻¹ s⁻¹
koff [7]: 0.000204 s⁻¹
B6: RANKL13hum4 (VHH, name in Kabat numbering)
VHH: B5 VHH with S95Y

IC50 [5]: 191 pM
Kd [6]: 880 pM
kon [6]: 264000 M⁻¹ s⁻¹
koff [7]: 0.000232 s⁻¹
B7: RANKL13hum2 (VHH, name in Kabat numbering)
VHH: B5 VHH with R30S

IC50 [5]: 123 pM
Kd [6]: 106 pM
kon [6]: 1.37e+06 M⁻¹ s⁻¹
koff [7]: 0.000145 s⁻¹
B9: RANKL13hum1 (VHH)
VHH: B5 VHH with R27F

IC50 [2]: 1580 pM
EC50 [3]: 861 pM
binding result [4]: no binding (tested: 500 nM to 160 pM)
B11: RANKL21 (VHH)
VHH: B10 VHH with S30N, M34V, K43E, I56V, G60A, K99N
notes: as for B3

IC50 [5]: 3150 pM
Kd [6]: 1560 pM
kon [6]: 151000 M⁻¹ s⁻¹
koff [7]: 0.000236 s⁻¹
B14: RANKL18hum1 (VHH, name in Kabat numbering)
VHH: B15 VHH with R27F, S49G

IC50 [2]: 755 pM
EC50 [3]: 652 pM
binding result [4]: no binding (tested: 500 nM to 160 pM)
B16: RANKL8 (VHH)
VHH: EVQLVESGGGSVQPGGSLRLSCAASGGTFSRYAMGWFRQAPGKEREFVSAISVGGTYQYYVDSVKGRFTISRDNAESTVYLQMNSLKPEDTAVYYCAGDASPYGYLREYTATRFDYWGQGTQVTVSS
notes: as for B3

IC50 [2]: 459 pM
EC50 [3]: 376 pM
binding result [4]: no binding (tested: 500 nM to 160 pM)
B17: RANKL7 (VHH)
VHH: EVQLVESEGGPVQSGGSLRLSCAASGRTFSVSTIAWFRQAPGEGREFVAAIYPSGRNAYVADSVKGRFTISRDNAKKTVYLQMNSLKPEDTAAYYCAAHQPSGSYYSAEAYAYWGQGTQVTVSS
notes: as for B3

IC50 [2]: 627 pM
EC50 [3]: 399 pM
binding result [4]: no binding (tested: 500 nM to 160 pM)
B19: RANKL12 (VHH)
VHH: EVQLVESGGGWMQAGGSLRLSCAASGRTFTMAWFRQAPGKEREFVAAITGSGRSTYYTDSVKGRFTISRDNAKNTAYLQMKSLKPEDTAVYYCAGLRGLGLEYDSAKSYSYWGQGTQVTVSS
notes: as for B3
